T1: THCA synthase (Cannabis sativa, UniProt Q8GTB6)
T1 construct: His-tag (C); made in house; host or cells: Pichia pastoris (PichiaPink, pPink-HC vector), secreted into the medium; cell-free T3 supernatant used
T1 sequence (Q8GTB6 29-545): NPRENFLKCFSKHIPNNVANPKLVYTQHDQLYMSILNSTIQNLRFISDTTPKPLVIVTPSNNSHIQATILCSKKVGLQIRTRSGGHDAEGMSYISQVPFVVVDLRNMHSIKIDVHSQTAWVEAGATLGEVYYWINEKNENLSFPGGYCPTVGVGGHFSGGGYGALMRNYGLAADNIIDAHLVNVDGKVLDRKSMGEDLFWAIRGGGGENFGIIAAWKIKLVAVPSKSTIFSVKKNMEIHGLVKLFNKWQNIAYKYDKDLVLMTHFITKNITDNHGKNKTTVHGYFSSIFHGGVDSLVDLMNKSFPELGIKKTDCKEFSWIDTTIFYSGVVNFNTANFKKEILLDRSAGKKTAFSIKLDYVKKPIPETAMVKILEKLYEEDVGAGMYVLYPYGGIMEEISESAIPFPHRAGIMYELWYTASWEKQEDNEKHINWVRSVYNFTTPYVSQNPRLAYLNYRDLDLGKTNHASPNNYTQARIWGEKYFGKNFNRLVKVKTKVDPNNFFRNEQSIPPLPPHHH

B1: Pme THC #5: cell free supernatant with THCA synthase from a pPink yeast colony transformed with Pme I linearized THCA synthase plasmid (protein, UniProt Q8GTB6 29-545, looked up)
Tetrahydrocannabinolic acid …: T1 sequence (Q8GTB6 29-545)
modifications: yeast culture supernatant
notes: cell free supernatant with THCA synthase from a pPink yeast colony transformed with Pme I linearized THCA synthase plasmid
B2: Pme THC(3) #11: cell free supernatant with THCA synthase from a pPink yeast colony transformed with Pme I linearized THCA synthase plasmid (protein, UniProt Q8GTB6 29-545, looked up)
Tetrahydrocannabinolic acid …: T1 sequence (Q8GTB6 29-545)
modifications: yeast culture supernatant
notes: as for B1
B3: Pme THC(2) #51: cell free supernatant with THCA synthase from a pPink yeast colony transformed with Pme I linearized THCA synthase plasmid (protein, UniProt Q8GTB6 29-545, looked up)
Tetrahydrocannabinolic acid …: T1 sequence (Q8GTB6 29-545)
modifications: yeast culture supernatant
notes: as for B1
B4: Pme THC(2) #2A: cell free supernatant with THCA synthase from a pPink yeast colony transformed with Pme I linearized THCA synthase plasmid (protein, UniProt Q8GTB6 29-545, looked up)
Tetrahydrocannabinolic acid …: T1 sequence (Q8GTB6 29-545)
modifications: yeast culture supernatant
notes: as for B1
B5: Pme THC(3) #19: cell free supernatant with THCA synthase from a pPink yeast colony transformed with Pme I linearized THCA synthase plasmid (protein, UniProt Q8GTB6 29-545, looked up)
Tetrahydrocannabinolic acid …: T1 sequence (Q8GTB6 29-545)
modifications: yeast culture supernatant
notes: as for B1
B6: Pme THC(2) #25: cell free supernatant with THCA synthase from a pPink yeast colony transformed with Pme I linearized THCA synthase plasmid (protein, UniProt Q8GTB6 29-545, looked up)
Tetrahydrocannabinolic acid …: T1 sequence (Q8GTB6 29-545)
modifications: yeast culture supernatant
notes: as for B1
B7: Spe THC #3: cell free supernatant with THCA synthase from a pPink yeast colony transformed with Spe I linearized THCA synthase plasmid (protein, UniProt Q8GTB6 29-545, looked up)
Tetrahydrocannabinolic acid …: T1 sequence (Q8GTB6 29-545)
modifications: yeast culture supernatant
notes: cell free supernatant with THCA synthase from a pPink yeast colony transformed with Spe I linearized THCA synthase plasmid
B8: Pme THC(2) #36: cell free supernatant with THCA synthase from a pPink yeast colony transformed with Pme I linearized THCA synthase plasmid (protein, UniProt Q8GTB6 29-545, looked up)
Tetrahydrocannabinolic acid …: T1 sequence (Q8GTB6 29-545)
modifications: yeast culture supernatant
notes: as for B1
B9: Pme THC(2) #42: cell free supernatant with THCA synthase from a pPink yeast colony transformed with Pme I linearized THCA synthase plasmid (protein, UniProt Q8GTB6 29-545, looked up)
Tetrahydrocannabinolic acid …: T1 sequence (Q8GTB6 29-545)
modifications: yeast culture supernatant
notes: as for B1
B10: Pme THC(2) #1: cell free supernatant with THCA synthase from a pPink yeast colony transformed with Pme I linearized THCA synthase plasmid (protein, UniProt Q8GTB6 29-545, looked up)
Tetrahydrocannabinolic acid …: T1 sequence (Q8GTB6 29-545)
modifications: yeast culture supernatant
notes: as for B1
B11: Spe THC #4: cell free supernatant with THCA synthase from a pPink yeast colony transformed with Spe I linearized THCA synthase plasmid (protein, UniProt Q8GTB6 29-545, looked up)
Tetrahydrocannabinolic acid …: T1 sequence (Q8GTB6 29-545)
modifications: yeast culture supernatant
notes: as for B7
B12: Spe THC #22: cell free supernatant with THCA synthase from a pPink yeast colony transformed with Spe I linearized THCA synthase plasmid (protein, UniProt Q8GTB6 29-545, looked up)
Tetrahydrocannabinolic acid …: T1 sequence (Q8GTB6 29-545)
modifications: yeast culture supernatant
notes: as for B7
B13: Pme THC(3) #17: cell free supernatant with THCA synthase from a pPink yeast colony transformed with Pme I linearized THCA synthase plasmid (protein, UniProt Q8GTB6 29-545, looked up)
Tetrahydrocannabinolic acid …: T1 sequence (Q8GTB6 29-545)
modifications: yeast culture supernatant
notes: as for B1
B14: Pme THC(3) #20: cell free supernatant with THCA synthase from a pPink yeast colony transformed with Pme I linearized THCA synthase plasmid (protein, UniProt Q8GTB6 29-545, looked up)
Tetrahydrocannabinolic acid …: T1 sequence (Q8GTB6 29-545)
modifications: yeast culture supernatant
notes: as for B1
B15: Pme THC(3) #1: cell free supernatant with THCA synthase from a pPink yeast colony transformed with Pme I linearized THCA synthase plasmid (protein, UniProt Q8GTB6 29-545, looked up)
Tetrahydrocannabinolic acid …: T1 sequence (Q8GTB6 29-545)
modifications: yeast culture supernatant
notes: as for B1
B16: Pme THC(2) #46: cell free supernatant with THCA synthase from a pPink yeast colony transformed with Pme I linearized THCA synthase plasmid (protein, UniProt Q8GTB6 29-545, looked up)
Tetrahydrocannabinolic acid …: T1 sequence (Q8GTB6 29-545)
modifications: yeast culture supernatant
notes: as for B1
B17: Pme THC(2) #41: cell free supernatant with THCA synthase from a pPink yeast colony transformed with Pme I linearized THCA synthase plasmid (protein, UniProt Q8GTB6 29-545, looked up)
Tetrahydrocannabinolic acid …: T1 sequence (Q8GTB6 29-545)
modifications: yeast culture supernatant
notes: as for B1

target: T1, THCA synthase; assay: catalytic activity of THCA synthase from independent colonies of transformed pPink yeast cells (conversion of CBGA to THCA); type: biochemical; settings: 25 μl cell free supernatant of T3 sample, 100 mM citrate buffer, 10% DMSO, final pH 5.0, 2 hours at 30° C.
Protocol: After 24 hours a 100 μL of the cell sample was removed to which was added 100 μL of 40% methanol to induce enzyme production. This methanolic sample was then centrifuged at 12,000 rpm for 5 minutes and the supernatant and pellet were saved as the T1 sample. A second culture sample was obtained after a 48 hour incubation period and treated with methanol as described above. After centrifugation, the supernatant and pellet are saved as the T2 sample. At 72 hours the entire incubation mixture is treated with an appropriate volume of 40% methanol. The supernatant and pellet obtained from methanolic treatment of the culture after a 72 hour incubation period is labeled as T3. The T3 supernatant was spun through an Amicon 30 kD protein filter and analyzed for protein using an SDS-PAGE gel.
The catalytic activity of THCA synthase was measured by incubating 25 μl of the cell free supernatant from a T3 sample with 25 μl of a 1 mg/ml CBGA stock in 200 μl of a 100 mM citrate buffer at pH 4.8 having 10% DMSO for 2 hours at 30° C. The final concentration of CBGA in the reaction mixture was 0.1 mg/ml and the final pH is 5.0. Table 4 illustrates the data related to the catalytic activity of THCA synthase obtained from independent colonies of transformed pPink yeast cells, namely. pPink yeast cells that were transformed using linearized THCA synthase plasmids. Culture samples that converted greater than 20% of the substrate CBGA to product THCA were selected for scale up.

Row | Molecule | % Conversion of CBGA to THCA in reaction containing 0.1 mg/ml CBGA.
1 | B1 | 32.5%
2 | B2 | 35.0%
3 | B3 | 26.8%
4 | B4 | 27.2%
5 | B5 | 36.8%
6 | B6 | 31.6%
7 | B7 | 20.6%
8 | B8 | 27.7%
9 | B9 | 27.6%
10 | B10 | 29.1%
11 | B11 | 28.7%
12 | B12 | 20.6%
13 | B13 | 69.9%
14 | B14 | 34.3%
15 | B15 | 55.2%
16 | B16 | 40.7%
17 | B17 | 32.5%
